Data as given in the supplement of paper PMC6757056.
± gives the standard deviation of the averaged measurements.

B1: library; a variant is named by its letters at N, in order (parent)
chain: GCUGUCACCGGUGCUUGGUACGUUAUAUUCAGCCGGUCUGAUGAGUCUNNNNNNAGACGAAACAGC

How the values were obtained:
[1] = variants of: B1; assay: FACS-Seq fitted mean relative fluorescence mCherry/BFP without ligand (log10 relative fluorescence); HEK293T overexpressing SLC46A1; higher = higher reporter protein expression; settings: without (6R,S)-folinic acid; ligand present: no
Protocol: (§1)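 Hammerhead (sTRSV) ribozyme switch libraries with a ligand aptamer grafted on stem I and a randomized N4-6 loop II, cloned into the 3' UTR of mCherry and transiently transfected into HEK293T cells; RNA-Seq 72 h post transfection with ligand added 1 h before transfection; RNA read count / plasmid DNA read count normalized to the non-cleaving sTRSVctl (x100), log10; sequences with >100 DNA reads. FACS-Seq: lentiviral library sorted into 6 bins after 48 h ligand, log-normal fit mean of mCherry/BFP scaled to controls. Printed sequences are partial switch sequences.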

[2] = variants of: B1; assay: normalized RNA/DNA level without ligand (relative to sTRSVctl = 100) (log10 (% of sTRSVctl)); HEK293T overexpressing SLC46A1; higher = less ribozyme self-cleavage, higher mRNA level; settings: without (6R,S)-folinic acid; ligand present: no
Protocol: as §1

[3] = variants of: B1; assay: FACS-Seq fitted mean relative fluorescence mCherry/BFP with ligand (log10 relative fluorescence); HEK293T overexpressing SLC46A1; ligand concentration (+) FACS-Seq: 6 mM; higher = higher reporter protein expression; settings: with (6R,S)-folinic acid; ligand present: yes
Protocol: as §1

[4] = variants of: B1; assay: normalized RNA/DNA level with ligand (relative to sTRSVctl = 100) (log10 (% of sTRSVctl)); HEK293T overexpressing SLC46A1; ligand concentration (+) RNA-Seq: 6 mM; higher = less ribozyme self-cleavage, higher mRNA level; settings: with (6R,S)-folinic acid; ligand present: yes
Protocol: as §1

Variant | FACS-Seq fitted mean (log10) [1] | normalized RNA/DNA level without ligand (log10) [2] | FACS-Seq fitted mean (log10) [3] | normalized RNA/DNA level with ligand (log10) [4]
GCUGUCACCGGUGCUUGGUACGUUAUAUUCAGCCGGUCUGAUGAGUCUACUGAGAGACGAAACAGC [ACUGAG] | 0.198 ± 0.044 | 1.7978 ± 0.0006 | 0.446 ± 0.082 | 2 ± 0.023
GCUGUCACCGGUGCUUGGUACGUUAUAUUCAGCCGGUCUGAUGAGUCUACUAAAAGACGAAACAGC [ACUAAA] | 0.538 ± 0.18 | 1.9903 ± 0.0016 | 0.483 ± 0.097 | 2.022 ± 0.018
GCUGUCACCGGUGCUUGGUACGUUAUAUUCAGCCGGUCUGAUGAGUCUUUAUACAGACGAAACAGC [UUAUAC] | 0.677 ± 0.11 | 1.994 ± 0.012 | 0.593 ± 0.097 | 1.99 ± 0.036
GCUGUCACCGGUGCUUGGUACGUUAUAUUCAGCCGGUCUGAUGAGUCUUACGAUAGACGAAACAGC [UACGAU] | 0.175 ± 0.046 | 1.9462 ± 0.0017 | 0.146 ± 0.33 | 2.02 ± 0.023
GCUGUCACCGGUGCUUGGUACGUUAUAUUCAGCCGGUCUGAUGAGUCUAAAAAUAGACGAAACAGC [AAAAAU] | 0.39 ± 0.039 | 1.944 ± 0.011 | 0.512 ± 0.13 | 1.99 ± 0.029
GCUGUCACCGGUGCUUGGUACGUUAUAUUCAGCCGGUCUGAUGAGUCUUAACGGAGACGAAACAGC [UAACGG] | 0.142 ± 0.02 | 1.705 ± 0.011 | 0.534 ± 0.11 | 1.95 ± 0.034
GCUGUCACCGGUGCUUGGUACGUUAUAUUCAGCCGGUCUGAUGAGUCUCAAACUAGACGAAACAGC [CAAACU] | 0.433 ± 0.064 | 2.01 ± 0.027 | 0.667 ± 0.16 | 2.01 ± 0.029
GCUGUCACCGGUGCUUGGUACGUUAUAUUCAGCCGGUCUGAUGAGUCUAGGGACAGACGAAACAGC [AGGGAC] | -0.124 ± 0.15 | 1.972 ± 0.011 | 0.0745 ± 0.15 | 1.994 ± 0.01
GCUGUCACCGGUGCUUGGUACGUUAUAUUCAGCCGGUCUGAUGAGUCUUACAAUAGACGAAACAGC [UACAAU] | 0.467 ± 0.071 | 1.95 ± 0.02 | 0.559 ± 0.071 | 2 ± 0.026
GCUGUCACCGGUGCUUGGUACGUUAUAUUCAGCCGGUCUGAUGAGUCUGCAGCGAGACGAAACAGC [GCAGCG] | 0.175 ± 0.0041 | 1.977 ± 0.016 | 0.0708 ± 0.18 | 2.03 ± 0.022
GCUGUCACCGGUGCUUGGUACGUUAUAUUCAGCCGGUCUGAUGAGUCUAGGCUCAGACGAAACAGC [AGGCUC] | 0.131 ± 0.13 | 2.06 ± 0.041 | -0.123 ± 0.11 | 2.01 ± 0.067
GCUGUCACCGGUGCUUGGUACGUUAUAUUCAGCCGGUCUGAUGAGUCUUCAUAAAGACGAAACAGC [UCAUAA] | 0.276 ± 0.048 | 1.935 ± 0.014 | 0.514 ± 0.034 | 1.96 ± 0.03
GCUGUCACCGGUGCUUGGUACGUUAUAUUCAGCCGGUCUGAUGAGUCUAUCGGAAGACGAAACAGC [AUCGGA] | 0.397 ± 0.17 | 1.99 ± 0.0013 | 0.345 ± 0.48 | 2 ± 0.039
GCUGUCACCGGUGCUUGGUACGUUAUAUUCAGCCGGUCUGAUGAGUCUUAGGUAAGACGAAACAGC [UAGGUA] | 0.246 ± 0.04 | 1.878 ± 0.0067 | 0.0784 ± 0.099 | 1.98 ± 0.031
GCUGUCACCGGUGCUUGGUACGUUAUAUUCAGCCGGUCUGAUGAGUCUACAAAGAGACGAAACAGC [ACAAAG] | 0.424 ± 0.017 | 1.929 ± 0.019 | 0.459 ± 0.23 | 2.01 ± 0.042
GCUGUCACCGGUGCUUGGUACGUUAUAUUCAGCCGGUCUGAUGAGUCUACUGGGAGACGAAACAGC [ACUGGG] | -0.0324 ± 0.033 | 1.841 ± 0.016 | 0.115 ± 0.1 | 2.0256 ± 0.0015
GCUGUCACCGGUGCUUGGUACGUUAUAUUCAGCCGGUCUGAUGAGUCUGAAGACAGACGAAACAGC [GAAGAC] | 0.635 ± 0.035 | 1.97 ± 0.0057 | 0.574 ± 0.24 | 2.03 ± 0.025
GCUGUCACCGGUGCUUGGUACGUUAUAUUCAGCCGGUCUGAUGAGUCUGGUAAAAGACGAAACAGC [GGUAAA] | 0.462 ± 0.11 | 1.979 ± 0.014 | 0.474 ± 0.38 | 2 ± 0.03
GCUGUCACCGGUGCUUGGUACGUUAUAUUCAGCCGGUCUGAUGAGUCUUGAUCGAGACGAAACAGC [UGAUCG] | 0.0489 ± 0.16 | 1.84 ± 0.021 | 0.0432 ± 0.082 | 1.992 ± 0.016
GCUGUCACCGGUGCUUGGUACGUUAUAUUCAGCCGGUCUGAUGAGUCUACGACCAGACGAAACAGC [ACGACC] | 0.728 ± 0.055 | 2.066 ± 0.015 | 0.641 ± 0.33 | 2.083 ± 0.02
GCUGUCACCGGUGCUUGGUACGUUAUAUUCAGCCGGUCUGAUGAGUCUAUUGAGAGACGAAACAGC [AUUGAG] | 0.4944 ± 0.0016 | 1.715 ± 0.01 | 0.969 ± 0.14 | 1.946 ± 0.012
